The target in one test is T1, hRXRα (human, UniProt P19793 1-462).
T1 construct: In vitro transcribed and translated protein used in gel shift assays with XOR-6; also called human RXR alpha
T1 sequence (looked up): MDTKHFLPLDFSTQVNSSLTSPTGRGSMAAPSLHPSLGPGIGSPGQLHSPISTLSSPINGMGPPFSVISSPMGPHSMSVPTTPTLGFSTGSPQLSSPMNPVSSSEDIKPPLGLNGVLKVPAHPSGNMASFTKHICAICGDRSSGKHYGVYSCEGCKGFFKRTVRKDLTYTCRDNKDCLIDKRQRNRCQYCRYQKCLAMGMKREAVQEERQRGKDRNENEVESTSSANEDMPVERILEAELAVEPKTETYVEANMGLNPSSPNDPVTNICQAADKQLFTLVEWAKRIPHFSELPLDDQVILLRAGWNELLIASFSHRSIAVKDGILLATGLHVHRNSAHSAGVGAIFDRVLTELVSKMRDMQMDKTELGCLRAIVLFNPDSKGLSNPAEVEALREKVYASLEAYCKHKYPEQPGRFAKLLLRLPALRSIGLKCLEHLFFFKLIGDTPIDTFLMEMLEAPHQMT
Kind of test: in vitro DNA-binding (gel shift) with in vitro translated proteins. The method, then: DNA-binding analysis was performed using in vitro transcribed, translated proteins (Perlmann et al., 1993, supra. oligonucleotides employed have been described previously (see Umesono et al., in Cell 65:1255-1266 (1990) and Perlmann et al., 1993, supra).
Thus, in vitro transcribed and translated proteins were mixed with a cocktail of hormone response elements containing DR0, DR1, PPRE, DR2, MLV-TRE, SPP1, and β-RARE. Thus, XOR-6 and hRXRα proteins were mixed and incubated with radiolabelled response elements. DR-1 through 5 are direct repeats of the sequence […] separated by 1-5 nucleotides. Reaction conditions and gel electrophoresis employed were as described by Perlmann et al., 1993, supra.
A general note: A gel shift assay detects complexes by their altered migration in electrophoresis.

The next test has as its target T2, hRARα (human, UniProt P10276 1-462).
T2 construct: also called human RAR alpha
T2 sequence (looked up): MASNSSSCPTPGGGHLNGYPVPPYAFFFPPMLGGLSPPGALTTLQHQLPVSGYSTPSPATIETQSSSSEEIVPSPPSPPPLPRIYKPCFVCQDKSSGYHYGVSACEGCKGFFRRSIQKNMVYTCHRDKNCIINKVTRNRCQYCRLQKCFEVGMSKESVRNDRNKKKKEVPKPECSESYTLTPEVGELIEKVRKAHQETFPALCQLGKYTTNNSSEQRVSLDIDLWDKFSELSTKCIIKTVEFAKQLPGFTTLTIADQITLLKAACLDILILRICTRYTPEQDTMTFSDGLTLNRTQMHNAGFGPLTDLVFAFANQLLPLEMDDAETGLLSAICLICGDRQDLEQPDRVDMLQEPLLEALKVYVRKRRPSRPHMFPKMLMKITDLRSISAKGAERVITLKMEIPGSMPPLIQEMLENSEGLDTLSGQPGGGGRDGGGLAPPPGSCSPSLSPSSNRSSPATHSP
As to the kind of experiment: in vitro DNA-binding (gel shift) with in vitro translated proteins and a cocktail of response elements.

B1: XOR-6 (Xenopus Orphan Receptor 6) (receptor)
chain: MWKVQETLVLEEEEEEEDASNSCGTGEDEDDGDPKICRACGDRATGYHFNAMTCEGCKGFFRRAVKRNLRLSCPFQNSCVINKSNRRHCQACRLKKCLDIGMRKELIMSDAAVEQRRALIKRKHKLTKLPPTPPGASLTPEQQHFLTQLVGAHTKTFDFNFTFSKNFRPIRRSSDPTQEPQATSSEAFLMLPHISDLVTYMIKGIISFAKMLPYFKSLDIEDQIALLKGSVAEVSVIRFNTVFNSDTNTWECGPFTYDTEDMFLAGFRQLFLEPLVRIHRMMRKLNVQSEEYAMMAALSIFASYRPGVCDWEKIQKLQEHIALTLKDFIDSQRPPSPQNRLLYPKIMECLTELRTVNDIHSKQLLEIWDIQPDATPLMREVFGSPE
notes: Expressed from pCDG-XOR6 (XOR-6 protein coding region) in CV-1 cells; Full-length, about 386 amino acids; also called full-length XOR-6
For the molecule B1, the binding result with hRXRα is “binds”; in the test with hRARα, “no binding”.

For the origin of these results see patent US20030044914A1 (SALK INSTITUTE FOR BIOLOGICAL STUDIES, published 2003).
